Biological target: Drosophila melanogaster Dicer-2 (dmDcr-2), OSF tag removed (Drosophila melanogaster, UniProt A1ZAW0 1-1722)
Assay: cross-linking

Drosophila melanogaster Dicer-2 (dmDcr-2), OSF tag removed, sequence (A1ZAW0 whole entry): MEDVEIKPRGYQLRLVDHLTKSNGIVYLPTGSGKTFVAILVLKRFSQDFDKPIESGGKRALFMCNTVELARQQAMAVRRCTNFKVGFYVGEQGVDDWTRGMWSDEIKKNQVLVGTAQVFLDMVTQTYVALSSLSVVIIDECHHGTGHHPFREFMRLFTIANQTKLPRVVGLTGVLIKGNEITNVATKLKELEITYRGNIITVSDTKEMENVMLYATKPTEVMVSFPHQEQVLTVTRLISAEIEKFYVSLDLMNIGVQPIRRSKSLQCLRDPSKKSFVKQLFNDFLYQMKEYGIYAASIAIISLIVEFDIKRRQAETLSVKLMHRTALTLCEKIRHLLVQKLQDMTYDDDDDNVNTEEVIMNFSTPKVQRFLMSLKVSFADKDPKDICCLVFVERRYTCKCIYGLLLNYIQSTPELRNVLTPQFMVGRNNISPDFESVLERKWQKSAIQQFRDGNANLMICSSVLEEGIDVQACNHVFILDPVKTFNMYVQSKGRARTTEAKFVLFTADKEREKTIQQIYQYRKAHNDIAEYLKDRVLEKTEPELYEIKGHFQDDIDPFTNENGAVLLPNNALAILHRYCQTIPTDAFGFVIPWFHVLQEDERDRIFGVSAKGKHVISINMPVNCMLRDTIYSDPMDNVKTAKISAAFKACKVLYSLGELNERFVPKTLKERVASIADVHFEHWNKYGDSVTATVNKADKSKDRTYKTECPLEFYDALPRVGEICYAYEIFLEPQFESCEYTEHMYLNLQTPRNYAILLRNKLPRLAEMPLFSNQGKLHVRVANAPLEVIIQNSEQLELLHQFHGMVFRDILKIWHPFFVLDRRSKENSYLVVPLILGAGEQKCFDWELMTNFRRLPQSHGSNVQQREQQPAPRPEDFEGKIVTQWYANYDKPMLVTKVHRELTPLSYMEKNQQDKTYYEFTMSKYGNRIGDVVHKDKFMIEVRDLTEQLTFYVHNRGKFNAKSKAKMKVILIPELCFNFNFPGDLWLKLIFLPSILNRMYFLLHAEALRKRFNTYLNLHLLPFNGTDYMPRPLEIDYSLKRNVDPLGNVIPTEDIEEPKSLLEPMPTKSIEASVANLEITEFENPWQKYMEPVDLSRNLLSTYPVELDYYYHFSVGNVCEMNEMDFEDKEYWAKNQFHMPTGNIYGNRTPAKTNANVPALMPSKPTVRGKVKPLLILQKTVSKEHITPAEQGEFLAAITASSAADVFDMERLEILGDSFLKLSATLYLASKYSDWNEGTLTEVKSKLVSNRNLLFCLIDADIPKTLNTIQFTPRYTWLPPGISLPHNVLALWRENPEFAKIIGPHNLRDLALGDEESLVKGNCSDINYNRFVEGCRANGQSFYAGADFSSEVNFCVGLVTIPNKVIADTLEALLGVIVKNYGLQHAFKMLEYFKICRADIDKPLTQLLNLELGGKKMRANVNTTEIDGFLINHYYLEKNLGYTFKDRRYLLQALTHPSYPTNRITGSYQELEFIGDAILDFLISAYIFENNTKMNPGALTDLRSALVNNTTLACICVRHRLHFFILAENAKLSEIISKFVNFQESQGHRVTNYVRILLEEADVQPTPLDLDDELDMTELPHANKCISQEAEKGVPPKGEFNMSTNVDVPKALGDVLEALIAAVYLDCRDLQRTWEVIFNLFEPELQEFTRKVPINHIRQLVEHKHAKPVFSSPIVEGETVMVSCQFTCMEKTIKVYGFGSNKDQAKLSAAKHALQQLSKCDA

stoichiometry N: 1
B1: Loquacious-PD (Loqs-PD), OSF tag removed (natural protein, Drosophila melanogaster, UniProt Q9VJY9-4 1-359, looked up)
chain: MDQENFHGSSLPQQLQNLHIQPQQASPNPVQTGFAPRRHYNNLVGLGNGNAVSGSPVKGAPLGQRHVKLKKEKISAQVAQLSQPGQLQLSDVGDPALAGGSGLQGGVGLMGVILPSDEALKFVSETDANGLAMKTPVSILQELLSRRGITPGYELVQIEGAIHEPTFRFRVSFKDKDTPFTAMGAGRSKKEAKHAAARALIDKLIGAQLPESPSSSAGPSVTGLTVAGSGGDGNANATGGGDASDKTVGNPIGWLQEMCMQRRWPPPSYETETEVGLPHERLFTIACSILNYREMGKGKSKKIAKRLAAHRMWMRLQETPIDSGKISDSICGELEGEVSIIQDIDRYEQVSKDFEFIKI
modifications: mono-phosphorylated (intact-mass ESI/MS shows a phospho and a dephosphorylated species); putative site assigned to the motif 213-SPSSS-217
